Assay [1] addresses T1, rHuman ErbB2/Fc Chimera, CF (R&D Systems Cat#1129-ER) (human, UniProt P04626 23-652).
T1 construct: Bought recombinant protein; also called human epidermal growth factor 2 receptor; Fc part of the bought chimera not given
Put plainly: ECL multispot (MSD) assay, antigen spotted on plate; blank spot of this row 184.

The target in assay [2] is T2, rHuman EGF R/Fc Chimera, CF (R&D Systems Cat#344-ER) (human, UniProt P00533 25-645).
T2 construct: Bought recombinant protein; also called epidermal growth factor receptor; Fc part of the bought chimera not given
Described as above.

The target in assay [3] is T3, rHuman HGF R/c-MET/Fc Chimera, CF (R&D Systems Cat#358-MT/CF) (human, UniProt P08581 25-932).
T3 construct: Bought recombinant protein; also called HGF R/Fc; hepatocyte growth factor receptor; Fc part of the bought chimera not given
T3 sequence (P08581 25-932, change not shown): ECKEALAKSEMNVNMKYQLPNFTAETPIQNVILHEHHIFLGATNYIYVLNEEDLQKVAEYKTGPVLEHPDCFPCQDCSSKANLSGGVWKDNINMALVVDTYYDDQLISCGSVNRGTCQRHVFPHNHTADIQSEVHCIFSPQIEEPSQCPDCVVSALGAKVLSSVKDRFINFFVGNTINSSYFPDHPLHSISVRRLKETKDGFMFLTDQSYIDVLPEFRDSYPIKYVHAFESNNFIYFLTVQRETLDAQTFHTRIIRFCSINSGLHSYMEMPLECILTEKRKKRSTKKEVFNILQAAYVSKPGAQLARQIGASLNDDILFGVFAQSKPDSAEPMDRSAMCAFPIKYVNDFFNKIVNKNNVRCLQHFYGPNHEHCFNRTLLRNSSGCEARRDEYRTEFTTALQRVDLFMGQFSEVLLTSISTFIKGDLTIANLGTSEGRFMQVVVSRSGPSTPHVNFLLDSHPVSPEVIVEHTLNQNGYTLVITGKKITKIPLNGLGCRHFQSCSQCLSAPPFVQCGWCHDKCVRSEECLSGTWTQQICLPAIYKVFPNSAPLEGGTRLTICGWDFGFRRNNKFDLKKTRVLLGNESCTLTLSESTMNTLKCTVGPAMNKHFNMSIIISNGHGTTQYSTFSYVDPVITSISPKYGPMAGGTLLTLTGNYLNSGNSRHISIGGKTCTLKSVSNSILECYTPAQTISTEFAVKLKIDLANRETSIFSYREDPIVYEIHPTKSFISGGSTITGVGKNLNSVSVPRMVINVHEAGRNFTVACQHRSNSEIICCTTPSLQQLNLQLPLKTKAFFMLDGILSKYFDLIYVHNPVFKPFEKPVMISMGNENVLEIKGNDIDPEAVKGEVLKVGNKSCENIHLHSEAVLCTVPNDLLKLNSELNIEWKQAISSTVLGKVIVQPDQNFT
The description is as above.

In assay [4] the target is T4, rHuman Notch-1/Fc Chimera, CF (R&D Systems Cat#3647-TK) (human, UniProt P46531 19-526).
T4 construct: Bought recombinant protein; Fc part of the bought chimera not given
Described as above.

For assay [5], the target named is T5, rHuman CD44/Fc Chimera, CF (R&D Systems Cat#3660-CD) (human, UniProt P16070 21-220).
T5 construct: Bought recombinant protein; Fc part of the bought chimera not given
The description is as above.

Assay [6] addresses T6, rHuman IGF-1 sR, (IGF-1 sR), CF (R&D Systems Cat#391-GR) (human, UniProt P08069 31-932).
T6 construct: Bought recombinant soluble receptor; also called insulin-like growth factor-1 soluble receptor
The description is as above.

Assay [7] deals with T7, rHuman P-Cadherin/Fc Chimera, CF (R&D Systems Cat#861-PC) (human, UniProt P22223 108-654).
T7 construct: Bought recombinant protein; Fc part of the bought chimera not given
The description is as above.

Assay [8] concerns the target T8, rHuman Erythropoietin R/Fc Chimera, CF (R&D Systems Cat#963-ER) (human, UniProt P19235 25-250).
T8 construct: Bought recombinant protein; also called EPO R; EPO R/Fc; Fc part of the bought chimera not given
T8 sequence (looked up): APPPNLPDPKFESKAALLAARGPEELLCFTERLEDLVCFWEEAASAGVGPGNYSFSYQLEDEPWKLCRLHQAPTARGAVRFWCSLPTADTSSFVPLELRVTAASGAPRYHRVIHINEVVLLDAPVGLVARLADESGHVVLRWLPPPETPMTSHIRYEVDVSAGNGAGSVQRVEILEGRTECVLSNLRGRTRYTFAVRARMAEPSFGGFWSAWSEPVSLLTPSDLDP
The description is as above.

Assay [9] addresses T9, Recombinant Human DLL4 (R&D Systems Cat#1506-D4/CF) (human, UniProt Q9NR61 27-524).
T9 construct: Bought recombinant protein; also called delta-like protein 4; rHuman DLL4
The description is as above.

The target of assay [10] is T1, rHuman ErbB2/Fc Chimera, CF (R&D …). The assay is described as follows: ECL multispot (MSD) assay, antigen spotted on plate; blank spot.
The target in assay [11] is T2, rHuman EGF R/Fc Chimera, CF (R&D …). Described as above.
Assay [12] concerns the target T3, rHuman HGF R/c-MET/Fc Chimera, CF (R&D …). Described as above.
Assay [13] concerns the target T4, rHuman Notch-1/Fc Chimera, CF (R&D …). The description is as above.
Assay [14] has as its target T5, rHuman CD44/Fc Chimera, CF (R&D Systems …). Described as above.
Assay [15] deals with T6, rHuman IGF-1 sR, (IGF-1 sR), CF (R&D …). The assay is described as above.
The target of assay [16] is T7, rHuman P-Cadherin/Fc Chimera, CF (R&D …). The description is as above.
Assay [17] deals with T8, rHuman Erythropoietin R/Fc Chimera, CF …. The assay is described as above.
For assay [18], the target named is T9, Recombinant Human DLL4 (R&D Systems …). The description is as above.
For assay [19], the target named is T1, rHuman ErbB2/Fc Chimera, CF (R&D …). Put plainly: ECL multispot (MSD) assay, antigen spotted on plate; blank spot of this row 392.
For assay [20], the target named is T2, rHuman EGF R/Fc Chimera, CF (R&D …). Described as above.
In assay [21] the target is T3, rHuman HGF R/c-MET/Fc Chimera, CF (R&D …). The description is as above.
Assay [22] deals with T4, rHuman Notch-1/Fc Chimera, CF (R&D …). The assay is described as above.
Assay [23] concerns the target T5, rHuman CD44/Fc Chimera, CF (R&D Systems …). The description is as above.
For assay [24], the target named is T6, rHuman IGF-1 sR, (IGF-1 sR), CF (R&D …). The description is as above.
Assay [25] addresses T7, rHuman P-Cadherin/Fc Chimera, CF (R&D …). The description is as above.
In assay [26] the target is T8, rHuman Erythropoietin R/Fc Chimera, CF …. The description is as above.
Assay [27] deals with T9, Recombinant Human DLL4 (R&D Systems …). Described as above.

B1: Fab VH1-46_IGHD6-6*01_IGHJ1*01 S102A/S103P/S104F/H111F (APFF) & L6_IGKJ1*01 S30A (Fab, V domains shown)
VH: QVQLVQSGAEVKKPGASVKVSCKASGYTFTSYYMHWVRQAPGQGLEWMGIINPSGGSTSYAQKFQGRVTMTRDTSTSTVYMELSSLRSEDTAVYYCAREEYAPFSAEYFQFWGQGTLVTVSS
VL: EIVLTQSPATLSLSPGERATLSCRASQSVASYLAWYQQKPGQAPRLLIYDASNRATGIPARFSGSGSGTDFTLTISSLEPEDFAVYYCQQRSNWPPWTFGQGTKVEIKR
notes: Fab made in E. coli: VH cloned into Plasmid A (CH1, His6 and Flag tags), kappa VL into Plasmid C (kappa CL); also called APFF / S30A
In the case of B1, the ECL signal in [1] was found to be 295; in assay [2] it was 337; in assay [3] it was 311; in assay [4], 364; in assay [5], 451; in assay [6], 342. For the same molecule, the ECL signal in [7] worked out at 317; in [8] it was 475; in assay [9], 187000.

B2: Fab VH1-46_IGHD6-6*01_IGHJ1*01 S102A/S103P/S104F/H111F (APFF) & L6_IGKJ1*01 S30V (Fab, V domains shown)
VH: QVQLVQSGAEVKKPGASVKVSCKASGYTFTSYYMHWVRQAPGQGLEWMGIINPSGGSTSYAQKFQGRVTMTRDTSTSTVYMELSSLRSEDTAVYYCAREEYAPFSAEYFQFWGQGTLVTVSS
VL: EIVLTQSPATLSLSPGERATLSCRASQSVVSYLAWYQQKPGQAPRLLIYDASNRATGIPARFSGSGSGTDFTLTISSLEPEDFAVYYCQQRSNWPPWTFGQGTKVEIKR
notes: Fab made in E. coli: VH cloned into Plasmid A (CH1, His6 and Flag tags), kappa VL into Plasmid C (kappa CL); also called APFF / S30V
With B2, the ECL signal in assay [10] was determined as 279; in assay [11], 412; in assay [12] it was 394; in assay [13] it was 294; in assay [14], 375; in assay [15], 365. Besides, the figures for the ECL signal in [16], in [17] and in assay [18] were 333, 536 and 141000, respectively.

B3: Fab VH1-46_IGHD6-6*01_IGHJ1*01 S102A/S103P/S104F/H111F (APFF) & L6_IGKJ1*01 S30T (Fab, V domains shown)
VH: QVQLVQSGAEVKKPGASVKVSCKASGYTFTSYYMHWVRQAPGQGLEWMGIINPSGGSTSYAQKFQGRVTMTRDTSTSTVYMELSSLRSEDTAVYYCAREEYAPFSAEYFQFWGQGTLVTVSS
VL: EIVLTQSPATLSLSPGERATLSCRASQSVTSYLAWYQQKPGQAPRLLIYDASNRATGIPARFSGSGSGTDFTLTISSLEPEDFAVYYCQQRSNWPPWTFGQGTKVEIKR
notes: Fab made in E. coli: VH cloned into Plasmid A (CH1, His6 and Flag tags), kappa VL into Plasmid C (kappa CL); also called APFF / S30T
As for B3, the ECL signal in assay [19] was 269; in assay [20], 383; in [21], 320; in assay [22] it was 375; in assay [23], 521; in [24], 401. Besides, the ECL signal worked out at 418 in assay [25], 470 in [26] and 136000 in assay [27].

(Values after US20120316071A1 (published 2012).)
